T1: commercially sourced Im7 linked to Sepharose (UniProt Q03708 1-87, linked to Sepharose resin)
T1 construct: also called Im7-Sepharose; Im7-agarose
T1 sequence: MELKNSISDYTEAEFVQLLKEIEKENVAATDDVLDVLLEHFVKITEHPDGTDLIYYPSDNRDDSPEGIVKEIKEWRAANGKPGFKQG

T2: Human IL17RA protein (SinoBiological) (human, UniProt Q96F46 33-320)
T2 construct: Coated on ELISA plates at 0.25 ug/well; also called IL17RA receptor
T2 sequence (looked up): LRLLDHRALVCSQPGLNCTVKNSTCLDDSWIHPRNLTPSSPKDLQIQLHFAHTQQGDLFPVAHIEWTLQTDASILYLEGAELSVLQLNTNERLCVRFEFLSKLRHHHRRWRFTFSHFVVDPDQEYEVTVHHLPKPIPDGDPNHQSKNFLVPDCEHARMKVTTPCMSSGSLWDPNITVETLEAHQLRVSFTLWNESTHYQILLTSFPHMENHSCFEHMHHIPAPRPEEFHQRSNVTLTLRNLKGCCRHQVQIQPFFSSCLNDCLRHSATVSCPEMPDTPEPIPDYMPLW


Tests used:
[1] = biological target: T1, commercially sourced Im7 linked to …; experiment: E. coli cytosol incubated with Im7-Sepharose, extensive washing, TEV release, SDS-PAGE
[2] = biological target: T2, Human IL17RA protein (SinoBiological); experiment: receptor binding ELISA, IL17RA coated at 0.25 ug/well

Binder	binding result [1]	binding result [2]
ColE7-IL33 fusion (Colicin E7 catalytic domain, linker, TEV site, murine IL-33 C-terminal fragment) (other, also called ColE7-1L33; ColicinE7-IL33) ESKRNKPGKATGKGKPVNNKWLNNAGKDLGSPVPDRIANKLRDKEFKSFDDFRKKFWEEVSKDPELSKQFSRNNNDRMKVGKAPKTRTQDVSGKATSFALHHEKPISQNGGVYDMDNISVVTPKRAIDIHRGKSGGGSSGSGENLYFQGSSIQGTSLLTQSPASLSTYNDQSVSFVLENGCYVINVDKSGKDQEQDQVLLRYYKSPCPASQSGDGVDGKKLMVNMSPIKDTDIWLHANDKDYSVELQRGDVSPPEQAFFVLHKKSSDFVSFECKNLPGTYIGVKDNQLALVEEKDESCNNIMFKLSKI	binds	–
IL33 purified on Im7-Sepharose and released from ColE7 by TEV protease (ligand) GSSIQGTSLLTQSPASLSTYNDQSVSFVLENGCYVINVDKSGKDQEQDQVLLRYYKSPCPASQSGDGVDGKKLMVNMSPIKDTDIWLHANDKDYSVELQRGDVSPPEQAFFVLHKKSSDFVSFECKNLPGTYIGVKDNQLALVEEKDESCNNIMFKLSKI	–	no binding
